Data published in patent US10487307B2, “Culture method for pluripotent stem cells” (FUJIFILM CORPORATION, priority 2013, dated 2019).

B1: RCP-23: comparative polypeptide, SEQ ID NO: 28; vitronectin positions 1-55, 56-129 (protein)
chain: GPLGDQESCKGRCTEGFNVDKKCQCDELCSYYQSCCTDYTAECKPQVTRGDVFTMPEDEYTVYDDGEEKNNATVHEQVGGPSLTSDLQAQSKGNPEQTPVLKPEEEAPAPEVGASKPEGIDSRPETLHPGRPQP
modifications: Vitronectin-derived Recombinant Protein (RCP-23)
B2: Natural vitronectin: human vitronectin (extracted from human serum, BD Biosciences) (protein, listed as Homo sapiens)
chain: DQESCKGRCTEGFNVDKKCQCDELCSYYQSCCTDYTAECKPQVTRGDVFTMPEDEYTVYDDGEEKNNATVHEQVGGPSLTSDLQAQSKGNPEQTPVLKPEEEAPAPEVGASKPEGIDSRPETLHPGRPQPPAEEELCSGKPFDAFTDLKNGSLFAFRGQYCYELDEKAVRPGYPKLIRDVWGIEGPIDAAFTRINCQGKTYLFKGSQYWRFEDGVLDPDYPRNISDGFDGIPDNVDAALALPAHSYSGRERVYFFKGKQYWEYQFQHQPSQEECEGSSLSAVFEHFAMMQRDSWEDIFELLFWGRTSAGTRQPQFISRDWHGVPGQVDAAMAGRIYISGMAPRPSLAKKQRFRHRNRKGYRSQRGHSRGRNQNSRRPSRATWLSLFSSEESNLGANNYDDYRMDWLVPATCEPIQSVFFFSGDKYYRVNLRTRRVDTVDPPYPRSIAQYWLGCPAPGHL
modifications: glycosylated
B3: RCP-26: comparative polypeptide, SEQ ID NO: 31; vitronectin positions 269-459 (protein)
chain: GPLGPSQEECEGSSLSAVFEHFAMMQRDSWEDIFELLFWGRTSAGTRQPQFISRDWHGVPGQVDAAMAGRIYISGMAPRPSLAKKQRFRHRNRKGYRSQRGHSRGRNQNSRRPSRATWLSLFSSEESNLGANNYDDYRMDWLVPATCEPIQSVFFFSGDKYYRVNLRTRRVDTVDPPYPRSIAQYWLGCPAPGHL
modifications: Vitronectin-derived Recombinant Protein (RCP-26)
B4: RCP-25: comparative polypeptide, SEQ ID NO: 30; vitronectin positions 56-459 (protein)
chain: GPLGYTVYDDGEEKNNATVHEQVGGPSLTSDLQAQSKGNPEQTPVLKPEEEAPAPEVGASKPEGIDSRPETLHPGRPQPPAEEELCSGKPFDAFTDLKNGSLFAFRGQYCYELDEKAVRPGYPKLIRDVWGIEGPIDAAFTRINCQGKTYLFKGSQYWRFEDGVLDPDYPRNISDGFDGIPDNVDAALALPAHSYSGRERVYFFKGKQYWEYQFQHQPSQEECEGSSLSAVFEHFAMMQRDSWEDIFELLFWGRTSAGTRQPQFISRDWHGVPGQVDAAMAGRIYISGMAPRPSLAKKQRFRHRNRKGYRSQRGHSRGRNQNSRRPSRATWLSLFSSEESNLGANNYDDYRMDWLVPATCEPIQSVFFFSGDKYYRVNLRTRRVDTVDPPYPRSIAQYWLGCPAPGHL
modifications: Vitronectin-derived Recombinant Protein (RCP-25)

Columns and labels:
[1] = Evaluation of adsorbability with respect to cell culture surface (OPA fluorescence); assay type: physicochemical; details: FIG. 1; for adsorbability with respect to the plate: 0 to 200 pmol/cm^2 added, 2 hours at 37° C., washed twice with PBS
Description: Each of the polypeptides of RCP-1 to RCP-11 and RCP-21 to RCP-26 obtained as above was diluted with a predetermined buffer such that they could be added to wells at a predetermined final concentration of 0 pmol/cm^2 to 200 pmol/cm^2. Thereafter, each of the polypeptides was added in an amount of 64 μL to a plasma-treated 96-well plate made of polystyrene (Tissue Culture-Treated, Falcon). Each of the polypeptides was allowed to adsorb onto the plate by being incubated for 2 hours at 37° C., and then the wells were washed twice with PBS, thereby obtaining surfaces coated with each of the polypeptides of RCP-1 to RCP-11 and RCP-21 to RCP-26.
Among the surfaces coated with each of the polypeptides obtained as above, the surfaces coated with RCP-1 and RCP-21 to RCP-26 were applied with 64 μL of a borate buffer and 64 μL of 1 N NaOH, followed by incubation for 24 hours at 80° C. and 100% humidity. After the resultant was air-cooled, 75 μL of a borate buffer was added to each well, and 50 μL of a reaction solution obtained by mixing OPA (o-phthalaldehyde: Wako Pure Chemical Industries, Ltd./methanol solution (160 mg/ml)) with N-acetyl-L-cysteine (NAC: Wako Pure Chemical Industries, Ltd.)/borate buffer solution (2 mg/ml) at a ratio of 1:100 (mass ratio) was further added thereto. After incubation for 30 minutes at 40° C., the fluorescence intensity thereof was measured by using an Envision Multilabel Counter (PerkinElmer Inc.) (excitation 355 nm/fluorescence 486 nm). A calibration curve was separately prepared from each of the polypeptide solutions so as to calculate the amount of the polypeptide adsorbed. In FIG. 1, a black rhombus indicates RCP-1, a black square indicates RCP-21, a black triangle indicates RCP-22, a black circle indicates RCP-23, a white rhombus indicates RCP-24, a white square indicates RCP-25, and a white triangle indicates RCP-26.

[2] = system: iPS cells; assay: Cell adhesiveness evaluation 3 (RCP-1 added amount); assay type: cell-based, human; details: added amount 130 pmol/cm^2; this surface = 100%; n=3
Description: The cell adhesiveness was evaluated in the same manner as in <Cell adhesiveness evaluation 1>, except that RCP-1 was used after the concentration thereof was adjusted to 125 pmol/cm^2 to 1,000 pmol/cm^2 by using PBS. In Table 10, the cell adhesion rate is expressed as a ratio calculated by regarding a cell adhesion rate with respect to the cell culture surface, onto which natural vitronectin is adsorbed at a concentration of 130 pmol/cm^2, as being 100%. n=3.

[3] = system: iPS cells; assay: Evaluation of maintenance of undifferentiated state (reference examples); assay type: cell-based, human
Description: iPS cells collected in the same manner as in <Cell adhesiveness evaluation 1> were suspended in TeSR2. The iPS cells were seeded into 6-well plate (Tissue culture-treated, Falcon), onto which each of the samples 1, 2, 5, 6, and 7 used in <Cell adhesiveness evaluation 1> was adsorbed in the same manner as in <Cell adhesiveness evaluation 1>, and cultured in a CO2 incubator at 37° C. Except for the day after the seeding, the medium was replaced every day. In the same method as described above, the cells were subcultured every six days.
After being cultured for 1 month under the conditions described above, the cells were immobilized using 4% paraformaldehyde and treated with 1% Triton-X/PBS so as to enhance the membrane permeability. After the cells were subjected to a blocking treatment using an Image IT Signal Enhancer (Invitrogen), an anti-human NANOG antibody (AF 1997, R&D Systems, Inc.), an Alexa Fluor 555 binding rabbit anti-goat IgG antibody (Invitrogen), and DAPI (4′,6-diamidino-2-phenylindole, Dojindo Molecular Technologies, Inc.) were added thereto for labeling, and the cells were imaged using a fluorescence microscope.
FIGS. 3A and 4A show the iPS cells cultured on RCP-1; FIGS. 3B and 4B show the iPS cells cultured on RCP-11; FIGS. 3C and 4C show the iPS cells cultured on natural human vitronectin; FIGS. 3D and 4D show the iPS cells cultured on rLaminin-5; and FIGS. 3E and 4E show the iPS cells cultured on rLaminin-511. The scale bar in the images indicates […]. In FIGS. 3A to 3E, the images on the left side are full images of the colony, and the images on the right side are magnified images. In FIGS. 4A to 4E, the images on the left side are images of the cells stained with DAPI, and the images on the right side are images of the cells stained with an anti-NANOG antibody. The scale bar in FIGS. 3A to 4E indicates 200 μm.

[4] = system: human iPS cells ("Tic"); assay: Cell adhesiveness evaluation 1 (ALP activity of adhesive iPS cells); assay type: cell-based; details: 30,000 cells/well, 24 hours, n=3
Description: The cell adhesiveness of human iPS cells (“Tic”: Cell No. JCRB 1331: from National Institute of Biomedical Innovation. [567-0085, 7-6-8 Asagi Saito Ibaraki-City Osaka]) with respect to the aforementioned polypeptides was evaluated in the following manner.
As feeder cells for retaining the human iPS cells, EmbryoMax (registered trademark) (early mouse embryonic fibroblasts: resistant to hygromycin, treated with mitomycin C, derived from C57/BL6, third passage) (Millipore Corporation) was used. By using DMEM (Invitrogen) and a 10% (v/v) fetal bovine serum medium, the feeder cells were cultured for 24 hours and attached to a T25 flask (Corning Incorporated). As a medium for the human iPS cells, the one obtained by adding FGF-2 (Sigma-Aldrich Co, LLC.) to a medium composed as shown in Table 6 at a final concentration of 10 ng/ml was used.
By using the aforementioned medium, the human iPS cells were retained and cultured in a 5% (v/v, the same unit will be used hereinafter) CO2 incubator at 37° C. Except for the day after the seeding of the iPS cells, the medium was replaced every day. The subculture operation was performed by exfoliating the cells by using Dispase II (neutral protease Grade II, Roche) and separating the cells in an appropriate size by a pipetting operation.
The iPS cells cultured as described above were treated with TrypLE Select (Invitrogen) for 5 minutes at 37° C. and separated into a single cell. After being subjected to centrifugation for 2 minutes at 300 rpm, the cells were collected and suspended in TeSR2 (a medium not containing a heterogeneous animal-derived component and a serum component, STEMCELL Technologies.) containing Y-27362 ((R)-(+)-trans-N-(4-pyridyl)-4-(1-aminoethyl)-cyclohexane carboxamide.2HCl.H2O, an Rho binding kinase inhibitor, Wako Pure Chemical Industries, Ltd.) at a final concentration of 10 μM.
Each of RCP-1 to RCP-11, RCP-21, RCP-25, and RCP-26 as control, human vitronectin (extracted from human serum, BD Biosciences), and recombinant laminin (rLaminin-5: Oriental Yeast Co., ltd. and Human Recombinant Laminin-511: BIOLAMINA AB) was added to and suspended in a predetermined buffer (a dialysis buffer used in <GRAVY value and aggregation characteristics> described above for RCP-1 to RCP-11, and PBS for RCP-21, RCP-25, human vitronectin, and recombinant laminin) at the concentration shown in Table 7, thereby preparing samples 1 to 17. The samples were added to the respective wells of a 96-well plate and adsorbed onto the plate by being held for 2 hours at 37° C.
Into the respective wells of the 96-well plate treated with the peptides, iPS cells were seeded at a cell density of 30,000 cells/well. After the cells were cultured for 24 hours, the nonadhesive cells were washed off with PBS, and only the adhesive cells were immobilized by using 4% (v/v) paraformaldehyde (Wako Pure Chemical Industries, Ltd.). By using an Attophos (registered trademark) AP Fluorescent Substrate System (Promega Corporation), the ALP activity was calculated, and from the calibration curve, the number of undifferentiated iPS cells having the ALP activity was calculated. In Table 7, the cell adhesion rate is expressed as a ratio calculated by regarding the cell adhesion rate obtained from the sample 15 using natural vitronectin as being 100%. n=3.

[5] = added amount 200 pmol/cm^2, natural vitronectin (sample 15) = 100%

Molecule	amount adsorbed onto the plate as fraction of the amount of polypeptides containing SEQ ID NO: 2 [1]	adsorbability with respect to the plate [1]	Cell adhesion rate (%) [4, 5] [%]	other results
RCP-24: comparative polypeptide, SEQ ID NO: 29; vitronectin positions 1-55 (GPLGDQESCKGRCTEGFNVDKKCQCDELCSYYQSCCTDYTAECKPQVTRGDVFTMPEDE; Vitronectin-derived Recombinant Protein (RCP-24)) [reference compound]	about ¼	–	–	–
B1	about ¼	–	–	–
B2	–	–	–	Cell adhesion rate (%) [2]: 100 ± 5.5%; form of iPS cell colony ([3]; TeSR2, subcultured every six days, FIGS. 3A to 3E): form specific to undifferentiated cells; NANOG expression ([3]; cultured for 1 month in TeSR2, anti-NANOG staining, FIGS. 4A to 4E): strongly expressed NANOG in the entirety of the colony; Cell adhesion rate (%) ([4]; added amount 130 pmol/cm^2, this sample = 100%): 100 ± 5.5%
B3	–	excellent adsorbability	9.4 ± 2.9	–
B4	–	excellent adsorbability	13.2 ± 3.4	–
